From patent US20130158238A1 (THERACLONE SCIENCES, published 2013)
Where “and” joins values, the source holds several entries; their conditions need not be identical. Equal entries are not always repeated.

Experiments:
[1] = biological target: M2 protein of A/Puerto Rico/8/34 (H1N1), on cells (Influenza A virus A/Puerto Rico/8/34 (H1N1)) (UniProt P06821); assay: flow cytometry on MDCK cells infected with A/Puerto Rico/8/34
[2] = biological target: T1, M2 protein on influenza A/Puerto Rico/8/34 (H1N1) virus particles (Influenza A virus A/Puerto Rico/8/34 …, UniProt P06821 1-97)
[3] = biological target: CM12; assay: ELISA, peptide 2 µg/mL, mAb 5 µg/mL
[4] = biological target: CM13; assay: ELISA, peptide 2 µg/mL, mAb 5 µg/mL
[5] = biological target: CM14; assay: ELISA, peptide 2 µg/mL, mAb 5 µg/mL
[6] = biological target: CM15; assay: ELISA, peptide 2 µg/mL, mAb 5 µg/mL
[7] = biological target: CM16; assay: ELISA, peptide 2 µg/mL, mAb 5 µg/mL
[8] = biological target: CM17; assay: ELISA, peptide 2 µg/mL, mAb 5 µg/mL
[9] = biological target: M12; assay: ELISA, peptide 2 µg/mL, mAb 5 µg/mL
[10] = biological target: NM12; assay: ELISA, peptide 2 µg/mL, mAb 5 µg/mL
[11] = biological target: NM13; assay: ELISA, peptide 2 µg/mL, mAb 5 µg/mL
[12] = biological target: NM14; assay: ELISA, peptide 2 µg/mL, mAb 5 µg/mL
[13] = biological target: NM7; assay: ELISA, peptide 2 µg/mL, mAb 5 µg/mL
[14] = biological target: NM8; assay: ELISA, peptide 2 µg/mL, mAb 5 µg/mL
[15] = biological target: M15; assay: ELISA, peptide 2 µg/mL, mAb 5 µg/mL
[16] = biological target: M16; assay: ELISA, peptide 2 µg/mL, mAb 5 µg/mL
[17] = biological target: M2e peptide … (23mer synthetic peptide of M2 derived from A/Fort Worth/1/50) (Influenza A virus A/Fort Worth/1/50 (H1N1)); assay: ELISA, peptide 2 µg/mL, mAb 5 µg/mL
[18] = biological target: NM15; assay: ELISA, peptide 2 µg/mL, mAb 5 µg/mL
[19] = biological target: NM17; assay: ELISA, peptide 2 µg/mL, mAb 5 µg/mL
[20] = biological target: M2 protein of A/Hong Kong/483/1997, on cells (Influenza A virus A/Hong Kong/483/97 (H5N1)); assay: FACS, supernatant on CHO cells stably expressing M2 of A/Hong Kong/483/97
[21] = biological target: T1, M2 protein on influenza A/Puerto …; assay: surface plasmon resonance, Fab on influenza virus

Molecule	EC50 (read off the curve) [1] [µg/mL]	EC50 (read off the curve) [2] [µg/mL]	binding activity (ELISA A450) [3]	binding activity (ELISA A450) [4]	binding activity (ELISA A450) [5]	binding activity (ELISA A450) [6]	binding activity (ELISA A450) [7]	binding activity (ELISA A450) [8]	binding activity (ELISA A450) [9]	binding activity (ELISA A450) [10]	binding activity (ELISA A450) [11]	binding activity (ELISA A450) [12]	binding activity (ELISA A450) [13]	binding activity (ELISA A450) [14]	also measured
TCN-031 (antibody)	0.2														
TCN-032 (antibody)	0.1														
23K12 (antibody, V domains shown) VH: EVQLVESGGGLVQPGGSLRISCAASGFTVSSNYMSWVRQAPGKGLEWVSVIYSGGSTYYADSVKGRFSFSRDNSKNTVFLQMNSLRAEDTAVYYCARCLSRMRGYGLDVWGQGTTVTVS VL: DIQMTQSPSSLSASVGDRVTITCRTSQSISSYLNWYQQKPGKAPKLLIYAASSLQSGVPSRFSGSGSGTDFTLTISGLQPEDFATYYCQQSYSMPAFGQGTKLEIK		~0.06	0.39	0.34	0.36	0.34	0.35	0.34	0.2	0.24	0.25	0.24	0.2	0.2	
8i10 (antibody, V domains shown) VH: QVQLQESGPGLVKPSETLSLTCTVSGSSISNYYWSWIRQSPGKGLEWIGFIYYGGNTKYNPSLKSRVTISQDTSKSQVSLTMSSVTAAESAVYFCARASCSGGYCILDYWGQGTLVTVS VL: DIQMTQSPSSLSASVGDRVTITCRASQNIYKYLNWYQQRPGKAPKGLISAASGLQSGVPSRFSGSGSGTDFTLTITSLQPEDFATYYCQQSYSPPLTFGGGTRVEIK		~0.04	0.14	0.14	0.14	0.12	0.13	0.11	0.09	0.1	0.11	0.11	0.1	0.1	binding activity (ELISA A450) [15]: 0.09; binding activity (ELISA A450) [16]: 0.09; binding activity (ELISA A450) [17]: 0.11; binding activity (ELISA A450) [18]: 0.12; binding activity (ELISA A450) [19]: 0.26; FACS M2-HK MFI [20]: 754 MFI and 1080 MFI
TCN-032 Fab fragment (Fab, V domains shown) VH: QVQLQESGPGLVKPSETLSLTCTVSGSSISNYYWSWIRQSPGKGLEWIGFIYYGGNTKYNPSLKSRVTISQDTSKSQVSLTMSSVTAAESAVYFCARASCSGGYCILDYWGQGTLVTVSS VL: DIQMTQSPSSLSASVGDRVTITCRASQNIYKYLNWYQQRPGKAPKGLISAASGLQSGVPSRFSGSGSGTDFTLTITSLQPEDFATYYCQQSYSPPLTFGGGTRVEIK															Kd [21]: 3.2 nM; koff [21]: 0.0023 s⁻¹; kon [21]: 740000 M⁻¹ s⁻¹
